Test results published in publication PMC9715652, “Structural insights into mechanism and specificity of the plant protein O-fucosyltransferase SPINDLY” (Nature Communications, 2022).
Changes are numbered by the printed parent chain. In names and notes the source's numbering stands.

B1: SPINDLY (SPY): S21A (protein)
parent chain: MVGLEDDTERERSPVVENGFSNGSRSSSSSAGVLSPSRKVTQGNDTLSYANILRARNKFADALALYEAMLEKDSKNVEAHIGKGICLQTQNKGNLAFDCFSEAIRLDPHNACALTHCGILHKEEGRLVEAAESYQKALMADASYKPAAECLAIVLTDLGTSLKLAGNTQEGIQKYYEALKIDPHYAPAYYNLGVVYSEMMQYDNALSCYEKAALERPMYAEAYCNMGVIYKNRGDLEMAITCYERCLAVSPNFEIAKNNMAIALTDLGTKVKLEGDVTQGVAYYKKALYYNWHYADAMYNLGVAYGEMLKFDMAIVFYELAFHFNPHCAEACNNLGVLYKDRDNLDKAVECYQMALSIKPNFAQSLNNLGVVYTVQGKMDAAASMIEKAILANPTYAEAFNNLGVLYRDAGNITMAIDAYEECLKIDPDSRNAGQNRLLAMNYINEGLDDKLFEAHRDWGWRFTRLHPQYTSWDNLKDPERPITIGYISPDFFTHSVSYFIEAPLTHHDYTKYKVVVYSAVVKADAKTYRFRDKVLKKGGVWKDIYGIDEKKIASMVREDKIDILVELTGHTANNKLGTMACRPAPVQVTWIGYPNTTGLPTVDYRITDSLADPPDTKQKQVEELVRLPDCFLCYTPSPEAGPVCPTPALSNGFVTFGSFNNLAKITPKVLQVWARILCAVPNSRLVVKCKPFCCDSIRQRFLTTLEQLGLESKRVDLLPLILFNHDHMQAYSLMDISLDTFPYAGTTTTCESLYMGVPCVTMAGSVHAHNVGVSLLTKVGLGHLVAKNEDEYVQLSVDLASDVTALSKLRMSLRDLMAGSPVCNGPSFAVGLESAYRNMWKKYCKGEVPSLRRMEMLQKEVHDDPLISKDLGPSRVSVTGEATPSLKANGSAPVPSSLPTQSPQLSKRMDSTS
B2: engineered Arabidopsis SPY^C645S (enzyme, Arabidopsis thaliana, UniProt Q96301 1-914, looked up)
chain: B1 parent chain with C645S
notes: SPINDLY (SPY), Arabidopsis thaliana, At3g11540, full-length with C645S; Crystallised with GDP; residues 848-914 and most of 1-43 are invisible in the structure; also called SPY (in the SPY/GDP complex structure); catalytic SPY; not shown: His6, N-terminal, cleaved; SUMO, N-terminal, cleaved
B3: SPINDLY (SPY): S24A (protein)
parent chain: B1 parent chain
B4: Arabidopsis SPINDLY (SPY), wild type, full-length (enzyme, Arabidopsis thaliana, UniProt Q96301 1-914, looked up)
chain: B1 parent chain
notes: Dimer in solution by SEC-MALS; also called wild type SPY; SPY^WT; not shown: His6, N-terminal, cleaved; SUMO, N-terminal, cleaved
B5: self-fucosylated SPY (enzyme, Arabidopsis thaliana, UniProt Q96301 1-914, looked up)
chain: B1 parent chain
modifications: O-fucose by self-fucosylation (major sites S21 and S24 by the paper's mutagenesis)
notes: SPINDLY (SPY), Arabidopsis thaliana, At3g11540, self-fucosylated sample run on gel filtration; Fucosylation of the sample was checked by western blotting with biotinylated AAL; also called SPY with fucosylation modification; source: E. coli BL21 (DE3), purified; self-fucosylated sample; not shown: His6, N-terminal, cleaved; SUMO, N-terminal, cleaved
B6: SPINDLY (SPY): self-fucosylated SPY (protein)
parent chain: B1 parent chain

Columns and labels:
[1] = in vitro fucosylation of DELLA1–205, AAL lectin blot; details: glycan lost; control: wild type SPY
[2] = target: the molecule itself; experiment: SEC-MALS; ~500 μg loaded on Superdex 200 increase 10/300 connected to a HELEOS multi-angle light scattering instrument; 20 mM Tris pH 7.9, 300 mM NaCl, 0.5 mM TCEP
[3] = target: the molecule itself; experiment: SEC; Superdex 200 Increase 10/300 GL, 0.5 mL injected; 50 mM Tris pH 7.9, 300 mM NaCl, 0.5 mM TCEP, 2 mM benzamidine; samples incubated at 4 °C for 6 h; peak fractions on SDS-PAGE
gel filtration = details: glycan gained; control: wild type unmodified SPY

Protein	enzymatic_activity [1]	stoichiometry N [2]	also measured
B1	no change		
B2		2	
B3	no change		
B4		2	
B5			stoichiometry N [3]: 2
B6			oligomerisation (gel filtration): no change
